The values that follow come from patent CN111909274A.

Assay [1] has as its target GPC3ΔGPI-FLAG重组蛋白 (GPC3 without its GPI region, C-terminal FLAG tag) (Homo sapiens (Human)) (UniProt P51654). Put plainly: ELISA on coated GPC3ΔGPI-FLAG, antibody pre-treated 2 h at 90℃, reference 4℃. In general terms: In an ELISA, binding on a coated surface is turned into a signal by an enzyme label.
Assay [2] shares this target. The experiment in a line: ELISA on coated GPC3ΔGPI-FLAG, antibody pre-treated 2 h at 70℃, reference 4℃.
Assay [3] has the same target. The experiment in a line: ELISA on coated GPC3ΔGPI-FLAG, nanobody pre-treated 2 h at 70℃, reference 4℃.
The target is the same in assay [4]. The experiment in a line: ELISA on coated GPC3ΔGPI-FLAG, nanobody pre-treated 2 h at 90℃, reference 4℃.
Assay [5] deals with mCherry-GPC3 (mCherry fused to the N-terminus of GPC3, stably expressed on HEK293T cells) (UniProt P51654). The experiment in a line: immunofluorescence colocalisation on HEK293T cells expressing mCherry-GPC3, confocal microscopy.

On to “HN3-hFc融合抗体 (known GPC3 nanobody HN3 fused to human Fc, bought from Creative Biolabs) (Fc fusion)”, for which the 抗原结合能力下降 (fall of OD450 against the 4℃ sample) in assay [1] worked out at 58.3%; in assay [2] it was 42.9%.

B1: G11纳米抗体 (GPC3 nanobody G11, His-tagged, from pET22b-G11-His) (VHH, not shown: small tags and cut ends)
VHH: QVQLVESGGALVQPGGSLRLSCAASSSDFSRNALRWYRQAPGKEREWVCGINWTGSGYAYEDSVKGRFTCSRDDARNTVYLQLNSLKPEDTAVYYCAPLACSNCFPYKHYVYWGQGTQVTVSS
B1: the 抗原结合能力下降 (fall of OD450 against the 4℃ sample) was determined as 16.7% in assay [3] and 30.8% in assay [4]. In assay [5], this molecule registered a 皮尔森相关系数 (Pearson correlation of mCherry and Alexa Fluor 488 signals) of 0.929.
